# Measured values as given in paper PMC10538664 (PLOS Pathogens, 2023).
# B1: fragment antigen binding (Fab) of mAb CB6 (Fab, V domains shown)
# VH: EVQLVESGGGLVQPGGSLRLSCAASGFTVSSNYMSWVRQAPGKGLEWVSVIYSGGSTFYADSVKGRFTISRDNSMNTLFLQMNSLRAEDTAVYYCARVLPMYGDYLDYWGQGTLVTVSS
# VL: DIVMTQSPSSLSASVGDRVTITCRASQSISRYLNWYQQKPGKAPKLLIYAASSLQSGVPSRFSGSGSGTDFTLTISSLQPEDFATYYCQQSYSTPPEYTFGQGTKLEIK
# Target: prototype SARS-CoV-2 tandem RBD homotrimer (PPP) (SARS-CoV-2, UniProt P0DTC2)
# Test: cryo-EM structure
# Conditions: both partners purified
binder,measurement,value
B1,stoichiometry N,3
